According to publication PMC12572374, “Regulation of ADP-ribosyltransferase activity by ART domain dimerization in PARP15” (Nature Communications, 2025):
Values belong to the molecule of their own block, whether it stands above or below them.

How the values were obtained:
PARP15 [1] = target: T1, PARP15 (Homo sapiens, UniProt Q460N3, R576E); assay: X-ray crystal structure; also nanoDSF thermal shift; format: binding
T1 construct: ART domain, Asn481-Ala678
T1 sequence (Q460N3 481-678 R576E): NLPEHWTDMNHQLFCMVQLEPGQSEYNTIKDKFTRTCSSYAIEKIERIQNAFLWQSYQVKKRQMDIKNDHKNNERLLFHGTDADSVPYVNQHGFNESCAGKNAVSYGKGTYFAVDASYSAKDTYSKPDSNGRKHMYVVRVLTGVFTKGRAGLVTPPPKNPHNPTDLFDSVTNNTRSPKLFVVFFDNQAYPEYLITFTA

PARP15 [2] = target: T2, PARP15 (Homo sapiens, UniProt Q460N3, R576D); assay: nanoDSF thermal shift at […] ligand; format: binding
T2 construct: ART domain, Asn481-Ala678
T2 sequence (Q460N3 481-678 R576D): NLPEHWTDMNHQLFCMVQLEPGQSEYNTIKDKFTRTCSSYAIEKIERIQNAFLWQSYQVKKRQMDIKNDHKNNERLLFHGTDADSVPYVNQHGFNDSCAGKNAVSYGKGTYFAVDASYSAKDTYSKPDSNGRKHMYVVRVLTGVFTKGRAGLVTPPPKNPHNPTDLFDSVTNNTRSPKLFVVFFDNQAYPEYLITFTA

PARP15 [3] = target: T1, PARP15; assay: ITC; also HDX-MS; format: binding
PARP15 [4] = target: T3, PARP15 (Homo sapiens, UniProt Q460N3); assay: ITC; also HDX-MS; format: binding
T3 construct: ART domain, Asn481-Ala678
T3 sequence (Q460N3 481-678): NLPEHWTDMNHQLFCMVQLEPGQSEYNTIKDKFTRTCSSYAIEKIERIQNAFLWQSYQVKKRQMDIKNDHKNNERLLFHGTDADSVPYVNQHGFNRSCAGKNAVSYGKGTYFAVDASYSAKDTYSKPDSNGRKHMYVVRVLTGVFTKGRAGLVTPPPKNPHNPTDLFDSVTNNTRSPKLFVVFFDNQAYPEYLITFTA

PARP10 = target: T4, PARP10 (Homo sapiens, UniProt Q53GL7); assay: auto-MARylation assay with purified enzyme (MacroGreen overlay); format: biochemical
T4 construct: ART domain, Asn819-Val1007
T4 sequence (Q53GL7 819-1007): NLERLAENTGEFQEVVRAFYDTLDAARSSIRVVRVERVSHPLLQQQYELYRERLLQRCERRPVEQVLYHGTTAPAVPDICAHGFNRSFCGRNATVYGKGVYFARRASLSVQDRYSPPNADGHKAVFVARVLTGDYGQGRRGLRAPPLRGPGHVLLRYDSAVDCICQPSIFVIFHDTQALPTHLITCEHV

[5] = target: T5, human PARP15 ART domain (Asn481-Ala678), wild type (human) (UniProt Q460N3)
T5 sequence: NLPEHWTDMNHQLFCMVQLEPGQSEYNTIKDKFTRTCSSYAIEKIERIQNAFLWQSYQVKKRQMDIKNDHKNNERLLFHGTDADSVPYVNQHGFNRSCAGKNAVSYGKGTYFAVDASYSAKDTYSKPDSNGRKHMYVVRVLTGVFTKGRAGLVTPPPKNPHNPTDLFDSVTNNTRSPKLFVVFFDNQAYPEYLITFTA

[6] = target: the molecule itself; assay: SEC-MALS; SEC-RALS/LALS (OMNISEC), Superdex 200 Increase 10/300 GL; 120 µl at 0.75 mg/ml PARP15 constructs, 0.35 mg/ml PARP14 ART, 0.65 mg/ml PARP10 ART; 50 mM HEPES pH 7.5, 300 mM NaCl, 1 mM TCEP
[7] = target: the molecule itself; assay: AUC; sedimentation velocity at 0.5 µM ART domain, 58,000 rpm for 5 h, measured at 220 nm, no NAD+; discrete model genetic algorithm (DMGA) analysis; dimer to monomers
[8] = target: the molecule itself; assay: AUC; sedimentation velocity, 0.5 µM PARP15 ART, 58,000 rpm, measured at 220 nm; Discrete Model Genetic Algorithm fit, 100 Monte Carlo iterations; no NAD+ treatment; dimer to monomers
[9] = target: the molecule itself; assay: AUC; sedimentation velocity at 9 µM protein, auto-MARylated and unmodified ART; 20 mM sodium phosphate pH 7, 150 mM NaCl; van Holde-Weischet analysis
[10] = target: the molecule itself; assay: HDX-MS; 2 mg/ml m2-ART in 50 mM TBS pH 7.4, labelling 0-9000 s at 20 °C

Molecule: NC(=O)c1cccc(N)c1 [3-aminobenzamide]
X-ray crystal structure; also nanoDSF thermal shift (PARP15 [1]): we crystallized the monomeric R576E mutant in complex with the nicotinamide analog 3-aminobenzamide (3AB)
nanoDSF thermal shift at 1 mM ligand (PARP15 [2]): thermal stabilities and ligand-induced Tm-shifts indicated they were properly folded

Kd (PARP15 [3]): 47 µM
Kd (PARP15 [4]): 24 µM
Molecule: Nc1ncnc2c1ncn2[C@@H]1O[C@H](C(=O)N2CCN(CC(=O)Nc3cccc4c3CNC4=O)CC2)[C@@H](O)[C@H]1O [EB-47]

Molecule: NC(=O)c1ccc[n+]([C@@H]2O[C@H](COP(=O)([O-])OP(=O)(O)OC[C@H]3O[C@@H](n4cnc5c(N)ncnc54)[C@H](O)[C@@H]3O)[C@@H](O)[C@H]2O)c1 [NAD+]
auto-MARylation assay with purified enzyme (MacroGreen overlay) (PARP10): PARP10 ART domain auto-modification increased in a roughly linear fashion over the entire concentration range

MARylation of plate-bound PARP15 macrodomain-2 by 250 nM wild-type ART with increasing H559Y (2-fold dilution series from 2 µM), MacroGreen overlay [5]: 500 nM
B1: PARP15 ART domain (Asn481-Ala678) H559Y, catalytically inactive (domain or fragment)
chain: NLPEHWTDMNHQLFCMVQLEPGQSEYNTIKDKFTRTCSSYAIEKIERIQNAFLWQSYQVKKRQMDIKNDHKNNERLLFYGTDADSVPYVNQHGFNRSCAGKNAVSYGKGTYFAVDASYSAKDTYSKPDSNGRKHMYVVRVLTGVFTKGRAGLVTPPPKNPHNPTDLFDSVTNNTRSPKLFVVFFDNQAYPEYLITFTA

B2: human PARP15 ART domain (Asn481-Ala678), wild type (domain or fragment, UniProt Q460N3 481-678, looked up)
chain: NLPEHWTDMNHQLFCMVQLEPGQSEYNTIKDKFTRTCSSYAIEKIERIQNAFLWQSYQVKKRQMDIKNDHKNNERLLFHGTDADSVPYVNQHGFNRSCAGKNAVSYGKGTYFAVDASYSAKDTYSKPDSNGRKHMYVVRVLTGVFTKGRAGLVTPPPKNPHNPTDLFDSVTNNTRSPKLFVVFFDNQAYPEYLITFTA
notes: PARP15, human, ADP-ribosyltransferase (ART) domain, residues Asn481-Ala678; numbers count on the canonical isoform (isoform 1); cDNA in pNIC-Bsa4 (GenBank EF198106 is the vector); also called PARP15 ART WT; WT PARP15; source: E. coli BL21(DE3), purified (HiTrap TALON, Superdex 75 SEC)
stoichiometry N [6]: 2
Kd [7]: 0.313 µM

B3: human PARP15 ART domain (Asn481-Ala678), wild type (domain or fragment, UniProt Q460N3 481-678, looked up)
chain: NLPEHWTDMNHQLFCMVQLEPGQSEYNTIKDKFTRTCSSYAIEKIERIQNAFLWQSYQVKKRQMDIKNDHKNNERLLFHGTDADSVPYVNQHGFNRSCAGKNAVSYGKGTYFAVDASYSAKDTYSKPDSNGRKHMYVVRVLTGVFTKGRAGLVTPPPKNPHNPTDLFDSVTNNTRSPKLFVVFFDNQAYPEYLITFTA
notes: PARP15 (protein mono-ADP-ribosyltransferase PARP15), human, ART domain, residues Asn481-Ala678 of the canonical isoform (isoform 1); No tag cleavage is described; not copied; also called PARP15 ART WT; WT PARP15; source: E. coli BL21(DE3), purified (TALON IMAC, Superdex 75 SEC)
Kd [8]: 0.313 µM

B4: auto-MARylated PARP15 ART domain (Asn481-Ala678) (domain or fragment, human, UniProt Q460N3 481-678, looked up)
chain: NLPEHWTDMNHQLFCMVQLEPGQSEYNTIKDKFTRTCSSYAIEKIERIQNAFLWQSYQVKKRQMDIKNDHKNNERLLFHGTDADSVPYVNQHGFNRSCAGKNAVSYGKGTYFAVDASYSAKDTYSKPDSNGRKHMYVVRVLTGVFTKGRAGLVTPPPKNPHNPTDLFDSVTNNTRSPKLFVVFFDNQAYPEYLITFTA
modifications: mono-ADP-ribosylated by auto-modification with NAD+; sites not stated
notes: PARP15, human, ART domain, residues Asn481-Ala678 of the canonical isoform; same construct as m1 after auto-MARylation; source: E. coli BL21(DE3), purified; 40 µM incubated with 100 µM NAD+ for 1 h, NAD+ removed on a desalting column
binding result [9]: binds

B5: PARP15 macrodomain-2 + ART domain construct (m2-ART; Gly287-Ala678) (domain or fragment, human, UniProt Q460N3 287-678, looked up)
chain: GTVSKPCFTAYEMKIGAITFQVATGDIATEQVDVIVNSTARTFNRKSGVSRAILEGAGQAVESECAVLAAQPHRDFIITPGGCLKCKIIIHVPGGKDVRKTVTSVLEECEQRKYTSVSLPAIGTGNAGKNPITVADNIIDAIVDFSSQHSTPSLKTVKVVIFQPELLNIFYDSMKKRDLSASLNFQSTFSMTTCNLPEHWTDMNHQLFCMVQLEPGQSEYNTIKDKFTRTCSSYAIEKIERIQNAFLWQSYQVKKRQMDIKNDHKNNERLLFHGTDADSVPYVNQHGFNRSCAGKNAVSYGKGTYFAVDASYSAKDTYSKPDSNGRKHMYVVRVLTGVFTKGRAGLVTPPPKNPHNPTDLFDSVTNNTRSPKLFVVFFDNQAYPEYLITFTA
notes: PARP15, human, macrodomain-2 and ART domain, residues Gly287-Ala678 of the canonical isoform (isoform 1); synthetic gene, codon optimised for E. coli, in pET151/TOPO; also called PARP15 m2-ART; PARP15 isoform-2 (m2-ART); source: E. coli BL21(DE3), purified (HiTrap TALON, Superdex 200 SEC, HiTrap SP XL cation exchange)
binding result [10]: binds
